Source: paper PMC10914751

Molecular target: Plk4 CPB (in vitro binding, Supplementary Fig. 3i)
Sequence (O00444 whole entry): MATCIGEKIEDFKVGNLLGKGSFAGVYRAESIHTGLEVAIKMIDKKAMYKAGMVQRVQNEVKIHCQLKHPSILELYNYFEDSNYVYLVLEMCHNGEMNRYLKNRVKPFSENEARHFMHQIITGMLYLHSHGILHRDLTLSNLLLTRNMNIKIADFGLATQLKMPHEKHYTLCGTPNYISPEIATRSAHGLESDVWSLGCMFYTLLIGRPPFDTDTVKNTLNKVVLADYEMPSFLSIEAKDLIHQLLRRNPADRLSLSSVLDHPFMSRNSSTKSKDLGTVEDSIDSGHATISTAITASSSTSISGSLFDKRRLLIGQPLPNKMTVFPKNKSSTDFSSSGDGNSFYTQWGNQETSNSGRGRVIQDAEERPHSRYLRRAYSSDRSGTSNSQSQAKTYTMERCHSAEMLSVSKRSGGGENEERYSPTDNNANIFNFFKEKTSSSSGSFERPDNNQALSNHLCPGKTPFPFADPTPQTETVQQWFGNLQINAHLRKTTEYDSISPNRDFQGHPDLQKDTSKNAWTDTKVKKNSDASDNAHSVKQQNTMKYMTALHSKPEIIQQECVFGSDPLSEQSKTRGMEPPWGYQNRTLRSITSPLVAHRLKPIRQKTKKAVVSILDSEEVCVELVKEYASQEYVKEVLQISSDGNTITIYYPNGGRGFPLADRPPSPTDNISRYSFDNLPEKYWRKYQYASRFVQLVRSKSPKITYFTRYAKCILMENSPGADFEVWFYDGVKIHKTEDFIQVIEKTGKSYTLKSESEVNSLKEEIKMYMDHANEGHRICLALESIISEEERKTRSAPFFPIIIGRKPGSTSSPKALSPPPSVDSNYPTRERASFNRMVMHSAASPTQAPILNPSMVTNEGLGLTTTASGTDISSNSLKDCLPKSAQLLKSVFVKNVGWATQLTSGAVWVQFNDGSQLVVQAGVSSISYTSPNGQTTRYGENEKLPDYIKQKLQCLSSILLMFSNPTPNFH

## recombinant Vpr (from UniProt P12520 1-96) (natural protein)
  in vitro kinase assay: trans-autophosphorylation of the SSTT motif (S698, S700, T704, T707) of GST-Plk4(1–836; ∆PB3) in the presence of Vpr•VprBP, but not Vpr(1–79)•VprBP; anti-p-SSTT immunoblot: 1.8 fold
